What was measured:
CD71 on SK-BR-3 cells = CD71 on SK-BR-3 cells (human, UniProt P02786 1-760); assay: cell-based or functional assay
[1] = molecular target: T1, recombinant biotinylated CD71 extracellular domain (Sino Biologics) with an N-terminal 6His tag (human, UniProt P02786 89-760, biotinylated (sites not given)); assay: screening ELISA, ratio
T1 construct: extracellular domain; also called hCD71; huCD71

[2] = molecular target: T1, recombinant biotinylated CD71 …; assay: screening ELISA

Chain of CD71 on SK-BR-3 cells (P02786 whole entry, the tested form may be a part): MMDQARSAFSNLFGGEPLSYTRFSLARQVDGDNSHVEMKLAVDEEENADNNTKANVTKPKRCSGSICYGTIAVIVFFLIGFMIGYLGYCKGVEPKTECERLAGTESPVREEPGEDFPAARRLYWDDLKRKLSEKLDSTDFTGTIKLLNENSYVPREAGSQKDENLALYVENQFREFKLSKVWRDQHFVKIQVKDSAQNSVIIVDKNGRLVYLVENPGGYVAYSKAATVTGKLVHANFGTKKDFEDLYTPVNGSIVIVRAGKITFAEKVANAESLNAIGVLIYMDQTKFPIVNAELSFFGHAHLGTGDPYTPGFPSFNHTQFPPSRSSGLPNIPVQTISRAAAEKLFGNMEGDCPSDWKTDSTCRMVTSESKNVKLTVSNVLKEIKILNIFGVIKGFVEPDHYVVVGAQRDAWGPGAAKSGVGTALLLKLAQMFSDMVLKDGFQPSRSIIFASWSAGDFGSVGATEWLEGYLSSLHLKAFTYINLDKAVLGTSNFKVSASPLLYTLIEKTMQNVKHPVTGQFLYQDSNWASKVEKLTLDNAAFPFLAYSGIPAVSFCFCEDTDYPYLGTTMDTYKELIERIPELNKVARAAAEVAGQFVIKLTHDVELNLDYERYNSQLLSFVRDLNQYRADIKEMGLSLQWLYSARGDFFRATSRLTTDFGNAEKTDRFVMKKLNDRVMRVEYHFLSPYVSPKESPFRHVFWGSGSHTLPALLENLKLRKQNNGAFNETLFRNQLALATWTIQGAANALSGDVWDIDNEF
T1 sequence (P02786 other isoform, or with tags, fused parts or gaps): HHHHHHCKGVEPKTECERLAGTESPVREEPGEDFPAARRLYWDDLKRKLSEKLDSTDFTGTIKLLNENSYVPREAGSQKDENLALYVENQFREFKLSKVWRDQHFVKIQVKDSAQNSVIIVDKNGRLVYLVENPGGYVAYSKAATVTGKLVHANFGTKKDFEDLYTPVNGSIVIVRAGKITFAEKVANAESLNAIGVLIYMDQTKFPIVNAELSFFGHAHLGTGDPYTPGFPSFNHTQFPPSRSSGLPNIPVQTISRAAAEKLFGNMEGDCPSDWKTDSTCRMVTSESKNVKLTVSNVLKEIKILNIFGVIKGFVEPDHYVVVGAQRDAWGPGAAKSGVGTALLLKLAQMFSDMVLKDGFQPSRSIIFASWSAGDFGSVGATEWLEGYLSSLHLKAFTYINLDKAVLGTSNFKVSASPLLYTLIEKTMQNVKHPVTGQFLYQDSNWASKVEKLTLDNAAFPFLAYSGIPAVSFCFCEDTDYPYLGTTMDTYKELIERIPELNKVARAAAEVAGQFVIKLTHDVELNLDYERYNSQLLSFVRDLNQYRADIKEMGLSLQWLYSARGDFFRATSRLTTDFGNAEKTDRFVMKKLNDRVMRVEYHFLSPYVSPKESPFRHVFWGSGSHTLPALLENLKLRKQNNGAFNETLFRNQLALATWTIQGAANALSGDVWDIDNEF

| Binder | IC50, SKBR-3 viability, MMAF conjugate, first unlabelled column (+/- human transferrin) (CD71 on SK-BR-3 cells) [nM] | IC50, SKBR-3 viability, MMAF conjugate, second unlabelled column (+/- human transferrin) (CD71 on SK-BR-3 cells) [nM] | hCD71:HSA [1] | hCD71 [2] |
| --- | --- | --- | --- | --- |
| SEQ ID NO 115 (designed binder, FN3 domain) MLPAPKNLVVSRVTEDSARLSWTAPDAAFDSFFIGYLEPQPPGEAIVLTVPGSERSYDLTGLKPGTEYNVTIQGVKGGFPSMPLSAIFTTT | 24.2 | 10.4 | 846 | 2.92e+06 |
| SEQ ID NO 222 (designed binder, FN3 domain) MLPAPKNLVVSRVTEDSARLSWTAPDAAFDSFYIEYFEWTGSGEAIVLTVPGSERSYDLTGLKPGTEYNVAIYGVKGGAVSYPLSAIFTT |  | 28.2 | 441 | 1.74e+06 |
| SEQ ID NO 104 (designed binder, FN3 domain) MLPAPKNLVVSHVTEDSARLSWTAPDAAFDSFDIEYYELVGSGEAIVLTVPGSERSYDLTGLKPGTEYYVAIYGVKGGYLSRPLSAIFTT | 301 | 5.9 | 2100 | 3.58e+06 |
| SEQ ID NO 194 (designed binder, FN3 domain) MLPAPKNLVVSRVTEDSARLSWTAPDAAFDSFEIDYDELAIYGEAIVLTVPGSERSYDLTGLKPGTEYRVFIYGVKGGWTSWPLSTIFTT |  | 5.09 | 32 | 562000 |
| SEQ ID NO 190 (designed binder, FN3 domain) MLPAPKNLVVSRVTEDSARLSWTAPDAAFDSFFIGYPEYPATGEAITLFVPGSERSYDLTGLKPGTEYNVVIQGVKGGRPSNPLVVAFTT | 36 | 12 | 656 | 3.21e+06 |
| SEQ ID NO 261 (designed binder, FN3 domain) MLPAPKNLVVSRVTEDSARLSWTAPDAAFDSFTIVYGEWGVPGEAIVLTVPGSERSYDLTGLKPGTEYDVWIEGVKGGDLSWPLSAIVTT | 1.24 | 31.2 | 763 | 4.23e+06 |
| SEQ ID NO 252 (designed binder, FN3 domain) MLPAPKNLVVSRVTEDSARLSWTAPDAAFDSFDIGYTEYGGYGEAIVLTVPGSERSYDLTGLKPGTEYWVLIQGVKGGGSSVPLSAIFTT | 24.6 | 7.74 | 1190 | 2.98e+06 |
| SEQ ID NO 164 (designed binder, FN3 domain) MLPAPKNLVVSRVTEDSARLSWTAPDAAFDSFLIPYAETSPSGEAIVLTVPGSERSYDLTGLKPGTEYSVLIHGVKGGHLSDPLSAIFTT | 18.7 | 55.8 | 2370 | 2.6e+06 |
| SEQ ID NO 212 (designed binder, FN3 domain) MLPAPKNLVVSRVTEDSARLSWTAPDAAFDSFIIEYWEQIGVGEAIVLTVPGSERSYDLTGLKPGTEYWVGIYGVKGGLLSSPLSAIFTT |  | 6.69 | 1110 | 2.49e+06 |
| SEQ ID NO 168 (designed binder, FN3 domain) MLPAPKNLVVSRVTEDSARLSWTTPDAAFDSFFIGYLEPYPPGEAIVLTVPGSERSYDLTGLKPGTEYVVSIQGVKGGKPSDPLSAIFTT | 32 | 7.2 | 1480 | 2.9e+06 |
| SEQ ID NO 278 (designed binder, FN3 domain) MLPAPKNLVVSRVTEDSARLSWTAPDAAFDSFPIAYAEPRPDGEAIVLTVPGSERSYDLTGLKPGTEYSVLIHGVKGGHLSDPLSAIFTT | 13.2 | 3.7 | 568 | 3.69e+06 |
| SEQ ID NO 257 (designed binder, FN3 domain) MLPAPKNLVVSRVTEDSARLSWTAPDAAFDSFHIVYHEPRPSGEAIVLTVPGSERSYDLTGLKPGTEYEVGIVSVKGGDLSVPLSAIFTT | 22 | 6.5 | 601 | 2.37e+06 |
| SEQ ID NO 237 (designed binder, FN3 domain) MLPAPKNLVVSRVTEDSARLSWTAPDAAFDSFTILYGEMGTTGEAIVLTVPGSERSYDLTGLKPGTEYDVFIEGVKGGELSWPLSAIFTT | 28.1 | 3.76 | 2240 | 4.15e+06 |
| SEQ ID NO 174 (designed binder, FN3 domain) MLPAPKNLVVSRVTEDSARLSWTAPDAAFDSFFIGYLEPQPPGEAIVLTVPGSERSYDLTGLKPGTEYKVVIQGVKGGTPSEPLSAIFTT |  | 158 | 1100 | 2.42e+06 |
| SEQ ID NO 197 (designed binder, FN3 domain) MLPAPKNLVVSRVTEDSARLSWTAPDAAFDSFKIDYLEINDNGEAIVLTVPGSERSYDLTGLKPGTEYPVYIWGVKGGYPSSPLSAIFTT |  | 0.468 | 242 | 4.57e+06 |
| SEQ ID NO 303 (designed binder, FN3 domain) MLPAPKNLVVSRVTEDSARLSWTAPDAAFDSFFIAYFEFANPGEAIVLTVPGSERSYDLTGLKPGTEYKVVIQGVKGGTPSEPLSAIFTT | 33 | 39 | 1330 | 3.51e+06 |
| SEQ ID NO 307 (designed binder, FN3 domain) MLPAPKNLVVSRVTEDSARLSWTAPDAAFDSFPITYSEPAHYGEAIVLTVPGSERSYDLTGLKPGTEYHVGIMGVKGGVFSSPLSAIFTT | 47.9 | 30.8 | 503 | 2.19e+06 |
| SEQ ID NO 214 (designed binder, FN3 domain) MLPAPKNLVVSRVTEDSARLSWTAPDAAFDSFAIPYGERQELGEAIVLTVPGSERSYDLTGLKPGTEYFVVIQGVKGGQPSYPLSAIFTT | 28.1 | 29.2 | 974 | 2.14e+06 |
| SEQ ID NO 233 (designed binder, FN3 domain) MLPAPKNLVVSRVTEDSARLSWTAPDAAFDSFYIVYAEPIPNGEAIVLTVPGSERSYDLTGLKPGTEYSVLIHGVKGGRNSDPLSAIFTT | 54.6 | 17.7 | 1310 | 3.41e+06 |
| SEQ ID NO 296 (designed binder, FN3 domain) MLPAPKNLVVSRVTEDSARLSWTAPDAAFDSFFIGYLEPQPPGEAIILTVPGSERSYDLTGLKPGTEYNVTIQGVKGGFPSMPLSAIFTT | 29.3 | 18.6 | 844 | 2.7e+06 |
| SEQ ID NO 95 (designed binder, FN3 domain) MLPAPKNLVVSRVTEDSARLSWTAPDAAFDSFRISYYEWYDLGEAIVLTVPGSERSYDLTGLKPGTEYWVDIAGVKGGYYSYPLSAIFTT | 28.3 | 12.7 | 2210 | 4.21e+06 |
| SEQ ID NO 112 (designed binder, FN3 domain) MLPAPKNLVVSRVTEDSARLSWTAPDAAFDSFFIAYFEFANPGEAIVLTVPGSERSYDLTGLKPGTEYKVVIQGVKGGTPSEPLSAISTT | 27.3 | 4.55 | 514 | 3.65e+06 |
| SEQ ID NO 217 (designed binder, FN3 domain) MLPAPKNLVVSRVTEDSARLSWTAPDAAFDSFIIEYWEWYFAGEAIVLTVPGSERSYDLTGLKPGTEYTVWITGVKGGTWSEPLSAIFTT | 15.8 | 2.46 | 332 | 3.9e+06 |

From patent publication US20210145976A1 (ARO BIOTHERAPEUTICS, published 2021)
